Results reported in patent publication US20250262292A1.
pKd: −log10 of the molar value.

Legend:
native host protein [1] = experiment: method not stated
native host protein [2] = experiment: method not stated; reference is wild type PmSLP-1 (SEQ.ID NO: 2)

Row | Substance | pKd (native host protein [1]) | factor by which Kd exceeds that of the native non-modified PmSLP (native host protein [2])
1 | wild type PmSLP-1 protein of P. multocida (SEQ.ID NO: 2) | 7.52 | 
2 | modified PmSLP-1 with E240A mutation (SEQ.ID NO: 67) | > 5.70 | > 500 fold
3 | modified PmSLP-1 with V214D mutation (SEQ.ID NO: 65) | > 5.70 | > 500 fold
